Assay [1] concerns the target T1, hNav1.7-loopB1-C1-D1-llama Fc (human).
T1 construct: whole entry: loops B1, C1, D1 joined by linkers, llama Fc; also called hNav1.7-loopB1-C1-D1-llfc
T1 chain: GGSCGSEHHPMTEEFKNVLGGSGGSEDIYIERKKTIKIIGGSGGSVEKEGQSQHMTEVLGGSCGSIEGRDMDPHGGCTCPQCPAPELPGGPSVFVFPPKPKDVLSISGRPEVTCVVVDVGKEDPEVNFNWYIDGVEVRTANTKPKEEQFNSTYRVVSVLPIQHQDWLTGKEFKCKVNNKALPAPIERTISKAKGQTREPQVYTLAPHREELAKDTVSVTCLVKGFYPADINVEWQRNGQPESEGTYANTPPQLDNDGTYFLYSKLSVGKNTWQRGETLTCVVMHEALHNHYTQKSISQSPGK
Put plainly: binding ELISA on coated loop-llama Fc chimera (20 ng/well), OD620. As for the experimental part:
(§1) For all DNA-immunization derived mAbs the binding affinity for the various hNav1.7-loop-llama Fc chimeras was tested in a binding ELISA. Therefore, a Maxisorp plate (Nunc) was coated with 20 ng/well of hNav1.7-loopA3-llama Fc, hNav1.7-loopB1-C1-D1-llama Fc or hNav1.7-loopC3-llama Fc. Remainder of the ELISA setup is as described above. […] Only at very high concentration minor cross-reactivity is observed for some clones.

In assay [2] the target is human Nav1.7 (full length) (human) (UniProt Q15858). Put plainly: cell-based or functional assay.
A further assay has as its target T2, hNav1.5-B1-C1-D1-llFc (human).
T2 construct: also called Nav1.5 extracellular loop B1-C1-D1 llamaFc chimera
T2 chain: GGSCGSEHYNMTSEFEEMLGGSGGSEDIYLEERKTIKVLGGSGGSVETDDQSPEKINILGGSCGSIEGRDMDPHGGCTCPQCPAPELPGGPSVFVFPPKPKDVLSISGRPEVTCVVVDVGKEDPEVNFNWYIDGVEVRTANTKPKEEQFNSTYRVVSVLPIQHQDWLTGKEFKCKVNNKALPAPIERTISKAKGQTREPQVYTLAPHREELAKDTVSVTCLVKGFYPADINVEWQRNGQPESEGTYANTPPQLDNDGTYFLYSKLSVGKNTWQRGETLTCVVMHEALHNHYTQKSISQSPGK
Put plainly: binding ELISA; the panel prints no target, by paragraph 288 and paragraph 555 the coated hNav1.5 loop B1-C1-D1-llama Fc. The source says: The therapeutic potency of an anti-hNav1.7 antibody will highly depend on the lack of binding to other Nay family members. Of particular interest is hNav1.5, which is expressed on cardiac muscle cells. As such, cross-reactive binding of hNav1.7 antibodies to hNav1.5 could lead to heart failure. To assay the specificity of the mAbs derived from DNA immunization for hNav1.7, the corresponding loopA3 and loopB1-C1-D1 sequences of hNav1.5 were cloned as llamaFc chimera and cross-reactivity was determined using a binding ELISA (FIG. 8). All clones, except clone 9A6 and 9H4, show no cross-reactivity to hNav1.5. In addition, cross reactivity for hNav1.2 was tested for the loopA3-binding clones 8A7 and 8B6 using hNav1.2 and hNav1.7 derived monomeric, GST-tagged loopA3 peptides (Abnova, H00006326-Q01 (hNav1.2) and H00006335-Q01 (hNav1.7)). Again, no cross-reactive binding was observed.
In general terms: An ELISA detects its analyte on a solid surface through an enzyme-linked reagent.

Assay [3] addresses T1, hNav1.7-loopB1-C1-D1-llama Fc. In words: ELISA, coated loop-B1-C1-D1-llama Fc 20 ng/well, mAb titrated. The protocol:
mAbs originating from the loopA3-llama Fc immunization were assayed for their affinity for hNav1.7-loopA3. Therefore, a Maxisorp plate was coated with 10 ng/well of loopA3-llamaFc chimera and incubated overnight at 4° C. The next day, the plate was blocked with PBS+1% casein for 2 hours at RT. Subsequently a concentration gradient of antibodies was applied (range 0.25 pM-66 nM) for another hour. Antibody binding to loopA3 was detected using a HRP-conjugated anti-human Fc antibody (Abcam, Ab7499) (incubation 1 hour at RT, dilution 1/5000 in PBS+0.1% casein), followed by TMB addition and OD620 nm measurement. EC50 values were determined using GraphPad Prism software. For comparison purposes a known hNav1.7-loopA3 binding monoclonal antibody, UCB_932 (US2011/0135662), was tested.
In a next experiment, the binding affinity of the loop-specific mAbs was determined and compared to reference mAbs as described in US2011/0135662 (for loop A3: UCB_932, for loopB1-C1-D1: UCB_983, for loopC3: UCB_1066; US2011/0135662). Affinities were determined using an ELISA with a loop-coating of 10 ng/well (loopA3-llama Fc), 20 ng/well (loop-B1-C1-D1-llama Fc) or 50 ng/well (loopC3-llama Fc). The remainder of the experimental setup was identical to abovementioned binding ELISAs. Most of the mAbs show pM affinity for the respective hNav1.7 extracellular loop they are binding. […] The EC₅₀ for the reference mAbs could not be determined (nd) from the ELISA data available because the binding was too weak.

In assay [4] the target is T3, hNav1.7-loopA3-llama Fc fusion (human).
T3 construct: also called hNav1.7-loopA3-llFc; loopA3-llamaFc chimera
T3 chain: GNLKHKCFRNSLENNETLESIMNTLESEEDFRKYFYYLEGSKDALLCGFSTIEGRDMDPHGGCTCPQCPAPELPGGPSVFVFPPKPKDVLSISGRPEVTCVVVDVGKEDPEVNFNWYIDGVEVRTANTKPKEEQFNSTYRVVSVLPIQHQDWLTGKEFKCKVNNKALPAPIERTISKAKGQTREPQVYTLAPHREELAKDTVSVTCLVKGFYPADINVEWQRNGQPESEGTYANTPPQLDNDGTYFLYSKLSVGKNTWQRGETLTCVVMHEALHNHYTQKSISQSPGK
Put plainly: binding ELISA on coated loop-llama Fc chimera (20 ng/well), OD620. As for the experimental part:
as §1

Another assay concerns the target T4, RatB1-C1-D1-llFc (rat).
T4 construct: also called rat Nav1.7 loopB1-C1-D1 llamaFc chimera
T4 chain: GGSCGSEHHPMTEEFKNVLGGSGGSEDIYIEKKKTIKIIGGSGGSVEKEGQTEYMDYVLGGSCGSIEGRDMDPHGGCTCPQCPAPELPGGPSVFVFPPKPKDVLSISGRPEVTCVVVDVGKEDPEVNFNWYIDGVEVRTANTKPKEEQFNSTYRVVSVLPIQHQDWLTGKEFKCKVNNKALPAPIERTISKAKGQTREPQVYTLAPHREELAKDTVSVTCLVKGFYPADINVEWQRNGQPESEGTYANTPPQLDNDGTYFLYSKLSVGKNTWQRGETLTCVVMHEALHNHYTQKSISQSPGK
Put plainly: binding ELISA; the panel prints no target, by paragraph 562 the coated rat loop B1-C1-D1-llama Fc.

In the next assay the target is T5, Nt-GCGR-hFc (human, UniProt P47871 26-136).
T5 construct: domain: N-terminal domain; also called Nt-GCGR-Fc; recombinant N-terminal domain of GCGR; not shown: hFc
T5 sequence (P47871 26-136): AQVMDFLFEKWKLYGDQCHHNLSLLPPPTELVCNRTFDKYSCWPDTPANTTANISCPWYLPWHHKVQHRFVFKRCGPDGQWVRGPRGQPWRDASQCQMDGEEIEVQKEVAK
Put plainly: ELISA with a titration of biotin-Nt-GCGR (x axis) against the mAbs, OD620.

The next assay has as its target Nt-GCGR-hFc (human) (UniProt P47871). Put plainly: scFv binding ELISA, periplasmic extract on coated Nt-GCGR.

The results in this text go back to patent US20160207996A1 (ARGEN X N V, published 2016).

Chain of Nt-GCGR-hFc (human) (P47871 26-136): as above

B1: 9G6 (antibody, human IgG1, V domains shown)
VH: EVQLVQPGAELTKPGASVKVSCNTSGYTFTGYYIDWVRQVPGEGLEWMGRIDPEDGDTKYAQKFQGRVTITADTSTTTAYMELSSLRSEDTAVYYCSLGVDYWGQGTQVTVSS
VL: ATMLTQSPGSLSVVPGESASISCKTSQSLVHSDGKTYLYWLLQKPGQSPQRLIYQVSNRDSGVPDRFTGSGSGTDFTLKISGVKAEDAGVYYCAQTTYDPVTFGQGTKVELK
For the molecule B1, the binding result in assay [1] is listed as “binds”. Moreover, in assay [2], the % inhibition of inward current following P02 voltage protocol, 10 µg/ml came to 11.8%; the % inhibition of inward current following P02 voltage protocol, 25 µg/ml was found to be 22.8%; the % inhibition of inward current following P02 voltage protocol, 100 µg/ml was found to be 37.5%. Also, the binding result in the assay with hNav1.5-B1-C1-D1-llFc is listed as “no binding (tested: about 130 nM)”.

B2: 9A1 (antibody, V domains shown)
VH: EVQLVQPGAELRNPGASVKVSCKASGDTFTDYYIHWVRQAPGQGLEWMGRIDPEDGGTKYTQKFQGRVTFTADTSTSTVYLELDSLRSEDTAVYYCVGDMDYWGKGTLVTVSS
VL: QTVVTQEPSLSVSPGGTVTLTCGLSSGSVTFGNYPSWYQQTPGQAPRTLIYTTNSRHSGVPSRFSGSISGNKATLTISGAQPEDEADFYCALSRVSGTYGTVFGGGTHLTVL
notes: chimeric llama-human, human IgG1 constant domains
One may read the EC50 as the midpoint of the concentration-response curve. The low end stands for an effect from little substance, the high end for a need for much substance. Consider B2, for which a half-maximal effect in assay [3] (EC50) was put at 330 pM. Besides, the binding result in assay [4] is on record as “binds”. In assay [2], this molecule registered a % inhibition of inward current following P02 voltage protocol, 10 µg/ml of 6.4%; a % inhibition of inward current following P02 voltage protocol, 25 µg/ml of 24.3%; a % inhibition of inward current following P02 voltage protocol, 100 µg/ml of 37.5%. The binding result in the assay with hNav1.5-B1-C1-D1-llFc is given as “no binding (tested: about 130 nM)”. Further, the binding result with RatB1-C1-D1-llFc is reported as “binds”.

B3: 9C3 (antibody, V domains shown)
VH: EVQLVQPGAELRNPGTSVKVSCKTSGYYFTSSDIQWVRQAPAQGLEWMGRIDPEDGATKYAPKFQGRVTFTADTFTRTAYVELSNLRSDDTAVYYCMTAGGEYWGKGTLVTVSS
VL: QPVLNQPSALSVSLGQTARITCQGGDFRNYYNNWYQQKPGQAPVLVIYEDSERPSGIPERFSGSSSGDTVILTVSRVQADDEADYYCQSSDSTDNAVFGGGTHLTVL
notes: as for B2
Take B3: a half-maximal response in assay [3] (EC50) required 170 pM. For the same molecule, the binding result in assay [4] is reported as “binds”; in the assay with hNav1.5-B1-C1-D1-llFc it was “no binding (tested: about 130 nM)”; in the assay with RatB1-C1-D1-llFc, “binds”. In assay [2], this molecule registered a % inhibition of inward current following P02 voltage protocol, 10 µg/ml of 18.3%. In assay [2], the % inhibition of inward current following P02 voltage protocol, 25 µg/ml is 21.6%. Further, the % inhibition of inward current following P02 voltage protocol, 100 µg/ml in assay [2] came out at 36.9%.

B4: mAb 6A1 (antibody, IgG1, V domains shown)
VH: EVQLVESGGGLVQPGGSLRLSCAASGFTFSRNAMTWVRQAPGKGLEWVSAISSTGNSITEADSVKGRFTISRDNAKNMLYLQMNSLKPEDTAVYYCAKLGGDTWYMEYWGQGTQVTVSS
VL: SYELTQSPSMSVALRQTAKITCGGNNIGSKSAQWYQQKPGQAPVLVIYADNRRPSGIPERFSGSNSGNTATLTISGAQAEDEADYYCQVWDSSANAVFGRGTHLTVLG
In the case of B4, the binding result in the assay with Nt-GCGR-hFc is “no binding (tested: about 20 ng/ml biotin-Nt-GCGR)”.

B5: 9C12 (antibody, V domains shown)
VH: EVQLVQPGAEVRRPGAAVKVSCKASGFALISSYIDWVRQAPGQGLEWMGRIDPEDGGTSYAQKFQGRVTVTVDTATSTVYVELSSLRSDDTGVYFCMVGDSGYWGQGTQVTVSS
VL: ATMLTQSPASLSVVPGESASISCKASQSLVHSDGKTYLYWLLQKPGQSPQRLIYQVSNRGSGVPDRFTGSGSGTDFTLKISGVKAEDAGVYYCAQHTYYPPSFGSGTRLEIK
notes: as for B2
Turning to B5, in assay [3], the half-maximal effective concentration (EC50) is 220 pM. The binding result in assay [4] is recorded as “no binding (tested: about 66 nM)”; in the assay with hNav1.5-B1-C1-D1-llFc, “no binding (tested: about 130 nM)”; in the assay with RatB1-C1-D1-llFc it was “binds”.

B6: 9F10 (antibody, human IgG1, V domains shown)
VH: EVQLVQPGAEVRRPGAAVKVSCKASGFALISSYIDWVRQAPGQGLEWMGRIDPEDGGTSYAQKFQGRVTVTVDTATSTVYVELSSLRSDDTGVYFCMVGDSGYWGQGTQVTVSS
VL: ATMLTQSPGSLSVGPGESASISCKAGQSLTHPNGKTYLSWLLQKPGQSPRRLIYETSNRDPGVPDRFTGSGSGTDFTLRIVGVTVEDAGVYYCAQTTYFPIAFGQGTKVELK
For B6, the concentration giving a half-maximal response (EC50) in assay [3] was 81 pM. Moreover, the figures for the binding result (in assay [4]; with hNav1.5-B1-C1-D1-llFc; with RatB1-C1-D1-llFc) were “no binding (tested: about 66 nM)”, “no binding (tested: about 130 nM)” and “binds”, respectively.

B7: scFv A3 (scFv, part only; not given: GS linker, not shown: small tags and cut ends)
scFv, part: QVQVQESGGGLVQPGGSLRLSCATSGFTFSNYYMSWVRQAPGKGPEWVSSIYSDLSTTYYADSVKGRFTISRDRAKNTLYLQMNSLKSEDTAVYYCARLSTVAGVDYWGKGTLVTVSSSYELTQSPSVSVALRQTAKITCGGNNIGSKSAQWYQQKPGQAPVLVIYADYRRPSGIPERFSGSNSGNTATLTISGAQAEDEADYYCQVWDSSANAAVFGGGTHLTVLG
In turn, B7 showed a ScFv binding ELISA signal with Nt-GCGR-hFc (human) of 0.883.

B8: scFv B1 (scFv, part only; not given: GS linker, not shown: small tags and cut ends)
scFv, part: QVQVQESGGGLVQPGGSLRLSCATSGFTFSNYYMSWVRQAPGKGPEWVSSIYSDLSTTYYADSVKGRFTISRDRAKNTLYLQMNSLKSEDTAVYYCARLSTVAGVDYWGKGTLVTVSSSYELTQSPSVSVALRQTAKITCGGNNIGSKSAQWYQQKPGQAPVLVIYADYRRPSGIPERFSGSNSGNTATLTISGAQAEDEADYYCQVWDSSANAAVFGGGTHLTVLG
With B8, the ScFv binding ELISA signal with Nt-GCGR-hFc (human) came out at 0.749.
